Assay results: the nanobody polyreactivity screen of Harvey et al. (2022)

assay: yeast display, Sf9 membrane polyspecificity reagent, FACS + sequencing; frameworks hold sequencing errors
Method in brief: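 Polyreactivity labels are assigned by the sorting gate from which each nanobody was recovered. The gates were low and high (top ~1%), set on anti-HA fluorescence for expression and streptavidin fluorescence for reagent binding. Before sorting, galactose-induced (36–48 hours) yeast display cells were stained for 1 hour at 4 °C with 10% biotinylated, detergent-solubilized Sf9 membrane reagent.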

Row | Sequence | polyreactivity (PSR sort gate)
1 | QVQLVESGGGLVQAGGSLRLSCAASGHTFRKYAMGWYRQAPGKERELVASITWSDGITYYADSVKGRFTISRDNAKNTVYLQMNSLKPEDTAVYYCATDLVQSEYDYWGQGTQVTVSS | low polyreactivity
2 | QVQLVESGGGLVQAGGSLRLSCAASGHTFSSYAMGWYRQAPGKERELVAAISVSATRTYYADSVKGRFTISRDNAKNTVYLQMNSLKPEDTAVYYCAARPVQFTYGYWGQGTQVTVSS | high polyreactivity
3 | QVQLVESGGGLVQAGGSLRLSCAASGIFEWNAMGWYRQAPRTERELVAAISNSGGSTYYADSVKGRFTISRDNAKNTVYLQMNSLKPEDNAVYYCAARSKTPAWWYWNSYYIRDYWGQATQVTVSS | high polyreactivity
4 | QVQLVESGGGLVQAGGSLRLSCAASGIFGWYAMGWYRQARGKEREFVATINWSGGRTYYADSVKGRFTISRDNAKNTVYVQMNSLKPEDTAVYYCAPENYASQYDYWGQGTQVTVSS | low polyreactivity
5 | QVQLVESGGGLVQAGGSLRLSCAASGIFPYNAMGWYRQAPGKERELVAAITWSDGSTYYADSVKGRFTISRDNAKNTVYLQMNSLKPEDTAVYYCNTYRNPAEDYWGQGTQVTVSS | low polyreactivity
6 | QVQLVESGGGLVQAGGSLRLSCAASGIFRLNAMGWYRQAPGKERELVAAISWSGGSTRYADSVKGRFTISRDNAKNTVYLQMNSLKPEDTAVYYCAKKLRGWHTIITDYDYWGLGTQVTVSS | low polyreactivity
7 | QVQLVESGGGLVQAGGSLRLSCAASGIFTYNAMGWYRQAPGKERELVASITRGGSTNYADSVKGRFTISRDNAKNTVYLQMNSLKPEDTAVYYCAARVRVYSGWLYNYWGQGTQVTVSS | high polyreactivity
8 | QVQLVESGGGLVQAGGSLRLSCAASGIFVDNAMGWYRQAPGKERELVAAISGSGGSTFYADSVKGRFTISRDNAKNTVYLQLNSLKPEDTAVYYCNADVYPHPAFFVGHDYWGHGTQVTVSS | low polyreactivity
9 | QVQLVESGGGLVQAGGSLRLSCAASGIFVGYTMGWYRQAPGKERELVAAIRWTDGSTYYADSVKGRFTISRDNAKNTVYLQMISLKPEDTAVYYCAADSHDPARYYYGDEFEDEYWGQGTQVTVSS | low polyreactivity
10 | QVQLVESGGGLVQAGGSLRLSCAASGIFYVYAMGWYRQAPGKERELVAAISSDGSTYYADSVKGRFTISRDNAKNTVYLQMNSLKPEDTAVYYCAAVWYWTQDYDYWGQGTQVTVSS | low polyreactivity
11 | QVQLVESGGGLVQAGGSLRLSCAASGIIFAFYAMGWYRQAPGKERELVATISKSGGRTYYADSVKGRFTISRDNAKNTVYLQMNSLKPEDTAVYYCAARIQYAFGADYYWGQGTQVTVSS | low polyreactivity
12 | QVQLVESGGGLVQAGGSLRLSCAASGIIFAHNAMGWYRQAPGKERELVAAISKRGGSTYYADSVKGRFTISLDNAKNTVYLQMNSLKPEDTAVYYCAAASFTWVSRGYDYWGQGTQVTVAS | high polyreactivity
13 | QVQLVESGGGLVQAGGSLRLSCAASGIIFALYAMGWYRQAPGKERELVATITYSGGSTYYADSVKGRFTISRDNAKNTVYLQMNSLKPEDTAVYYCAADYYILRWRQTNDYWGQGTQVTVSS | low polyreactivity
14 | QVQLVESGGGLVQAGGSLRLSCAASGIIFARNGMGWYRPAPGKERELVAAISSGGRKYYADSVKGRFTISRDNAKNTVYLQMNSLKPEDTAVYYCNALGWYLRGDYWGQGTQVTVSS | high polyreactivity
15 | QVQLVESGGGLVQAGGSLRLSCAASGIIFARNTMGWYRQAPGKERELVAAISTRGTTSYYADSVKGRFTISRDNAKYTVYLQMNSLKPEDTAVYYCAAVRVHTDRYNYWGQGTQVTVSS | high polyreactivity
16 | QVQLVESGGGLVQAGGSLRLSCAASGIIFARYAMGWYRQAPGKERELVAAINWSGGDTYYADSVKGRFTISRDNAKNTVYLEMNSLIPEDTAVYYCSKVISYLVVLPRTERYEGDYWGQGTQVSVSS | low polyreactivity
17 | QVQLVESGGGLVQAGGSLRLSCAASGIIFASNAMGWYRQTPGKERELVAAISGSGGRTYYADSVKGRFTISRDNAKNTVYLQMNSLKPDDTAVYYGAAARANNYDYWGQGTQVTVSS | high polyreactivity
18 | QVQLVESGGGLVQAGGSLRLSCAASGIIFASNARGWYIQAPGKERELVASINRRGSSTYYADSVKGRFTISRDNAKNTVYLQMNSLKPEDTAVYYCAARAFNSGLGYTRYDYWGQGTQVTVSS | high polyreactivity
19 | QVQLVESGGGLVQAGGSLRLSCAASGIIFASNGMGWYRQAPGKERELVAAISSGGSTNYADSVKGLFTISRDHAKNTVYLQMNSLKPEDTAVYYCAADRWDRDYDYWGQGTQVTVSS | low polyreactivity
20 | QVQLVESGGGLVQAGGSLRLSCAASGIIFASYAMGWYRPAPGKERELVATISRTGGSTRYADSVKGRFTISRDNAKNTVYLQMNSLKPEDTAVYYCAARNPAYDRRYGYWGQGTQVTVSS | high polyreactivity
21 | QVQLVESGGGLVQAGGSLRLSCAASGIIFATNSMGWYRQAPGKERELVAAITSDSTNYADSVKGRFTISRDNAKNTVYLQMNSLKAEDTAVYYCAADLITDYEESDYWGQGTQVTVSS | low polyreactivity
22 | QVQLVESGGGLVQAGGSLRLSCAASGIIFAWYAMGWYRQAPGKERELVAAISYSGGTTYYADSVKGRFTISRDIAKNTVYLQMNSLKPEDTEVYYCAGRLHLFFSYDYWGQGTLVTVSS | low polyreactivity

Row | Sequence | polyreactivity (PSR sort gate)
23 | QVQLVESGGGLVQAGGSLRLSCAASGIIFAWYAMGWYRQAPGKERELVAAITSRGGSRTFYADSVKGRFTISRDNAKNTVYLQMNSLKPEDTAVYYCAVVTRAHPEDYWGQGTQVTVSS | high polyreactivity
24 | QVQLVESGGGLVQAGGSLRLSCAASGIIFAYNAMGWYRQAPGKERELVAAISSGGRTNYADSVKGRFTISRDNAKNTVYLQMNSLKPEDTAVYYCAARPRYYWLGLKIYGYDYWGHGTQVTVSS | high polyreactivity
25 | QVQLVESGGGLVQAGGSLRLSCAASGIIFAYNAMGWYRQAPVKERELVAAISVIGGTTYYADSVKGRFTISRDNAKITVYLQMNSLKPEDTAVYYCAVDSVQYGGGYERLHDLYYWGQGTQVTVSS | low polyreactivity
26 | QVQLVESGGGLVQAGGSLRLSCAASGIIFAYYAMGWYRQAPGKERELVAAIDYSGASTYYADSVKGRFTISRDNAKNTVYLQMNSLKPEDTAVYYCNADDFGYASYEYWGQGTQVTVSS | low polyreactivity
27 | QVQLVESGGGLVQAGGSLRLSCAASGIIFAYYAMGWYRQAPGKERELVAAISDNGGRTFYADSVKGRFTISRDNAKNTVYLQMNSLKPEDTAVYYCAAVVYSEYYYWGQGTQVTVSS | low polyreactivity
28 | QVQLVESGGGLVQAGGSLRLSCAASGIIFAYYAMGWYRQAPGKERELVGTNYADSVKGRFTISRDNAKNTVFLQMNSLKPEDTAVYYCAVQGYGEYDYWGQGTQVTVSS | low polyreactivity
29 | QVQLVESGGGLVQAGGSLRLSCAASGIIFDDNTMGWYRQAPGKERELVAAISSSGGSTYYADSVKGRFTISRDNAKNTVYLQMNSLKPEDTAVYYCAAAVYYTYPYIVYRNYPEFDYWGQGTQVTVSS | low polyreactivity
30 | QVQLVESGGGLVQAGGSLRLSCAASGIIFDDYAMGWYRQAPGKERELVAAINSNGGTTYYADSVKGRFTISRDNAKNTVYLHMNSLKPEDTAVYYCAKAYPGTYREYDYWGQGTQVTVSS | high polyreactivity
31 | QVQLVESGGGLVQAGGSLRLSCAASGIIFDFYAMGGYRQAPGKEREFVAAINSGSGSTYYADSVKGRFTISRDNAKNTVYLQMNSLKPVDTAVYYCAADGLSATLTWYSYDYWGQGTQVTVSS | low polyreactivity
32 | QVQLVESGGGLVQAGGSLRLSCAASGIIFDFYAMGWYRQAPGKERELVAAINSGSGSTYYADSVKGRFTISRDNAKNTVYLQMNSLKPEDTAVYYCAADGLSATLTWYSYDYWGQGTQVTVSS | low polyreactivity
33 | QVQLVESGGGLVQAGGSLRLSCAASGIIFDGNSMGWYRQAPGKEREFVAANSRNGGSTSYADSVKGRFTISRHNAKNTVYLQMHSLKPEDTAVYYCAADVETFWGCRYEYWGQGTQVTVSS | low polyreactivity
34 | QVQLVESGGGLVQAGGSLRLSCAASGIIFDGYAMGWYRQAPGKEREFVAAITSGGGSTSYADSVKGRFTISRDNAKNTVYLQMNSLKPEDTAVYYCAARSNRFYVRQRYAYWGQGTQLTVSS | high polyreactivity
35 | QVQLVESGGGLVQAGGSLRLSCAASGIIFDINAMGWYRQAPGKERELVAAITTSVDSTYYADSVKGRFTISRDNAKNTVYLQMNSLKPEDTAVYYCAVAFVQFTQYYYWGQGSQVTVSS | low polyreactivity
36 | QVQLVESGGGLVQAGGSLRLSCAASGIIFDRNTMGWYRQAPGKEREYVAAISRNGGSTSYADSVKGRFTISRDNAKNTVYLQMNSLKPEDTAVYDCAADVETFWGWRYEYWGQGTQVTVSS | low polyreactivity
37 | QVQLVESGGGLVQAGGSLRLSCAASGIIFDRYAMGWYRQAPGKERELVAAISWSGGRTYYADSVKGRFTISRDNAKNTVYLQMNSLKPEDTAVYYCAAKPSVDLDYWGQGTQVTVSS | high polyreactivity
38 | QVQLVESGGGLVQAGGSLRLSCAASGIIFDRYAMGWYRQAPGKERELVAAITRSGGRTYYADSVKGRFTISRDNAKNTVYLQMNSLKPEDTAVYYCNAYRSALYPPEYDYWGQGTQVTVSS | high polyreactivity
39 | QVQLVESGGGLVQAGGSLRLSCAASGIIFDTNAIGWYSQAPGKERELVATITQRGGTTYYADSVKGRFTISRDNAKNTVYLQMNSLKPEDTAVYYCNAGPVRLPYDSWGQGSQVTVSS | low polyreactivity
40 | QVQLVESGGGLVQAGGSLRLSCAASGIIFDTYVMGWYRQAPGKERELVAAITRSGGRTRYADSVKGRFTISRDNAKNTVYLQMNSLKPEDTAVYYCAARIPDRQDGYGYWGQGTQVTVSS | high polyreactivity
41 | QVQLVESGGGLVQAGGSLRLSCAASGIIFDWYAMGWYRQAPGTERELVAAISDSGDTTYYADSVKGRFTISRDNAKNTVYLQMNSLNPEDTAVYYCAARWEYVGYRRRYYRFDYWGQGTQVTVSS | high polyreactivity
42 | QVQLVESGGGLVQAGGSLRLSCAASGIIFEGNVMGWYRQAPGKERELVAAITSDTSTNYADSVKGRFTISRDNAKNTVYIQMNSLKPEDTAVYYCNAVIGTDYYYSGTAEFYYWGQGTQVTVSS | low polyreactivity
43 | QVQLVESGGGLVQAGGSLRLSCAASGIIFEGYAMGWYRQAPGKERELVAAISQSGGSTRYADSVKGRFTISRDNAKNTVYLQMNSLKPEDTAVYYCAKLSLSWDGYYQYDYWGQGTQVTVSS | low polyreactivity
